Data as given in PMC4047826.

Target: Dead streptavidin subunit with a polyaspartate insertion in the 3/4 loop (Dd) (Streptomyces avidinii) (UniProt P22629)
Assay: mixed refold, anion-exchange chromatography and SDS-PAGE without boiling; subunits refolded together from inclusion bodies into PBS; tetramers resolved on Mono-Q (20 mM Tris-HCl pH 8.0, 0-1 M NaCl gradient); peaks run on SDS-PAGE unboiled (tetramer) or boiled (subunit composition), Coomassie

stoichiometry N: 4
Substance: Dead streptavidin subunit with a polyaspartate insertion in the 3/4 loop (Dd) (from UniProt P22629 37-163) (domain or fragment)
